Values belong to the substance of their own block, whether it stands above or below them.
Key:
talin H1-H4 [1] = assay: isothermal titration calorimetry
talin H1-H4 [2] = assay: isothermal titration calorimetry, cell talin H1-H4, titrant talin H46 (VBS3)
talin in HeLa cells = talin in HeLa cells (UniProt Q9Y490); assay: cell-based or functional assay
talin H1-H4 [3] = assay: ITC; talin H1-H4 in the cell, IpaA VBS3 peptide as titrant
[4] = target: T1, vinculin in C2.7 mouse myoblast cells (mouse) (UniProt Q64727); assay: cell-based or functional assay
T1 sequence: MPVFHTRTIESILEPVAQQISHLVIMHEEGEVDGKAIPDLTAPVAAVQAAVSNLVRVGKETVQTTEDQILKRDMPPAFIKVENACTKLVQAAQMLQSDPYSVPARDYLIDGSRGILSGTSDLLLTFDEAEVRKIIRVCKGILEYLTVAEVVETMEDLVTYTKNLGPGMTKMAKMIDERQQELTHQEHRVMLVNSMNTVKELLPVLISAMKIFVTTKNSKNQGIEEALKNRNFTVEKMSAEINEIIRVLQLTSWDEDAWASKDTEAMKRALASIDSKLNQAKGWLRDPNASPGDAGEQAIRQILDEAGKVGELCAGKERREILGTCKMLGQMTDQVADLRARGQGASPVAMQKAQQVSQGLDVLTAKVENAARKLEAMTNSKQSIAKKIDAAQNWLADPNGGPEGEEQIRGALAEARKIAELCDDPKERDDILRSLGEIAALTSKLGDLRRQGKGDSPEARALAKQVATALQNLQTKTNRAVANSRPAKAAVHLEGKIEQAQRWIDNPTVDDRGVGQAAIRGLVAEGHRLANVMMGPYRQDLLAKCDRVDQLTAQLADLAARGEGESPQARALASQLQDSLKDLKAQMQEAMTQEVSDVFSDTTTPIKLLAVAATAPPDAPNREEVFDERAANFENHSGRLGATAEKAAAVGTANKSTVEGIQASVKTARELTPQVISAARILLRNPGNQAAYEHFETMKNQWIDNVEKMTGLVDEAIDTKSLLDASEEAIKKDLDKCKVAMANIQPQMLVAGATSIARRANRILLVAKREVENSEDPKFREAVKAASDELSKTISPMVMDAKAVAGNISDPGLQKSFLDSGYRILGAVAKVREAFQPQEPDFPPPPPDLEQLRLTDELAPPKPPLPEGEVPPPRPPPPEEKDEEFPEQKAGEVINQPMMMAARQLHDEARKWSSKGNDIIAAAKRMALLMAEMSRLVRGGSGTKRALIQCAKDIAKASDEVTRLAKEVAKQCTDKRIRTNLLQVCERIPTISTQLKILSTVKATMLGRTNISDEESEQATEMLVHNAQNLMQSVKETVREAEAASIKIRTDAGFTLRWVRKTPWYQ

talin H1-H4 [5] = assay: ITC; A483 in the cell, talin H1-H4 as titrant
talin H1-H4 [6] = assay: size exclusion chromatography; stoichiometry listed for the complex
talin H1-H4 [7] = assay: ITC; HVD1:A483 equimolar complex in the cell, talin H1-H4 as titrant
talin H1-H4 [8] = assay: size exclusion chromatography; stoichiometry listed for the ternary complex
talin H1-H4 [9] = assay: ITC; A524 in the cell, talin H1-H4 as titrant
talin H1-H4 [10] = assay: ITC; talin H1-H4 in the cell, IpaA VBS1 peptide as titrant

Chain of IpaA 524-633 (A524) (P18010 524-633 limits assumed): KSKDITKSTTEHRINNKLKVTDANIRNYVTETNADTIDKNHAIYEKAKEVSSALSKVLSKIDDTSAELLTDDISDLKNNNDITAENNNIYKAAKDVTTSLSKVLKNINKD
Chain of talin H1-H4 (P26039 482-636): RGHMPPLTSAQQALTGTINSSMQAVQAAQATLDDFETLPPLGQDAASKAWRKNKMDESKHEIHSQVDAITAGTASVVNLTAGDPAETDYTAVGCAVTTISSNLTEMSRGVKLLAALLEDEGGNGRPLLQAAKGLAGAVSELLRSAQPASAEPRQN
Chain of IpaA 483-633 (A483) (P18010 483-633 limits assumed): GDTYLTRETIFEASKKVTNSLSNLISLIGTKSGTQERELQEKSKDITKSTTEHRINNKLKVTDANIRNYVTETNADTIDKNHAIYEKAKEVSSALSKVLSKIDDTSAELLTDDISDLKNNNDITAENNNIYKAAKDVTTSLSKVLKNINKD
Chain of A483:HVD1 complex (P18010 483-633 limits assumed): as above
Chain of GFP-A483 (P18010 483-633): as the sequence (P18010 483-633 limits assumed) above
Chain of IpaA full length (P18010 whole entry): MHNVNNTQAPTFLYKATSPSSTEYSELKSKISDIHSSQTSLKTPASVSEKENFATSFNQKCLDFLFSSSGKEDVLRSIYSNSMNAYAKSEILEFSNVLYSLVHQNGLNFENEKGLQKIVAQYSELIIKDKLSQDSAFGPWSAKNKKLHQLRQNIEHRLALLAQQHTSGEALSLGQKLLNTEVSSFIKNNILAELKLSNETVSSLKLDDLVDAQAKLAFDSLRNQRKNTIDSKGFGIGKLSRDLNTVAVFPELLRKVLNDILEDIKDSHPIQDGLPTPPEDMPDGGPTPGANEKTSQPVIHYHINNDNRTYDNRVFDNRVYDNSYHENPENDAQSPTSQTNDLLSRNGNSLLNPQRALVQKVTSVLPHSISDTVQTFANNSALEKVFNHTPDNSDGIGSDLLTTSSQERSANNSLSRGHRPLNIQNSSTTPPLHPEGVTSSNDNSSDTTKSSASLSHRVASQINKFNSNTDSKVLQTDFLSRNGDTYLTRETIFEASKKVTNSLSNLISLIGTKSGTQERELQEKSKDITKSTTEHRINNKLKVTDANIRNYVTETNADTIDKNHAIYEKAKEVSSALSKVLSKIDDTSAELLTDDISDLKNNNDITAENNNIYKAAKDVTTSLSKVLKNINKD
Chain of talin in HeLa cells (Q9Y490 whole entry): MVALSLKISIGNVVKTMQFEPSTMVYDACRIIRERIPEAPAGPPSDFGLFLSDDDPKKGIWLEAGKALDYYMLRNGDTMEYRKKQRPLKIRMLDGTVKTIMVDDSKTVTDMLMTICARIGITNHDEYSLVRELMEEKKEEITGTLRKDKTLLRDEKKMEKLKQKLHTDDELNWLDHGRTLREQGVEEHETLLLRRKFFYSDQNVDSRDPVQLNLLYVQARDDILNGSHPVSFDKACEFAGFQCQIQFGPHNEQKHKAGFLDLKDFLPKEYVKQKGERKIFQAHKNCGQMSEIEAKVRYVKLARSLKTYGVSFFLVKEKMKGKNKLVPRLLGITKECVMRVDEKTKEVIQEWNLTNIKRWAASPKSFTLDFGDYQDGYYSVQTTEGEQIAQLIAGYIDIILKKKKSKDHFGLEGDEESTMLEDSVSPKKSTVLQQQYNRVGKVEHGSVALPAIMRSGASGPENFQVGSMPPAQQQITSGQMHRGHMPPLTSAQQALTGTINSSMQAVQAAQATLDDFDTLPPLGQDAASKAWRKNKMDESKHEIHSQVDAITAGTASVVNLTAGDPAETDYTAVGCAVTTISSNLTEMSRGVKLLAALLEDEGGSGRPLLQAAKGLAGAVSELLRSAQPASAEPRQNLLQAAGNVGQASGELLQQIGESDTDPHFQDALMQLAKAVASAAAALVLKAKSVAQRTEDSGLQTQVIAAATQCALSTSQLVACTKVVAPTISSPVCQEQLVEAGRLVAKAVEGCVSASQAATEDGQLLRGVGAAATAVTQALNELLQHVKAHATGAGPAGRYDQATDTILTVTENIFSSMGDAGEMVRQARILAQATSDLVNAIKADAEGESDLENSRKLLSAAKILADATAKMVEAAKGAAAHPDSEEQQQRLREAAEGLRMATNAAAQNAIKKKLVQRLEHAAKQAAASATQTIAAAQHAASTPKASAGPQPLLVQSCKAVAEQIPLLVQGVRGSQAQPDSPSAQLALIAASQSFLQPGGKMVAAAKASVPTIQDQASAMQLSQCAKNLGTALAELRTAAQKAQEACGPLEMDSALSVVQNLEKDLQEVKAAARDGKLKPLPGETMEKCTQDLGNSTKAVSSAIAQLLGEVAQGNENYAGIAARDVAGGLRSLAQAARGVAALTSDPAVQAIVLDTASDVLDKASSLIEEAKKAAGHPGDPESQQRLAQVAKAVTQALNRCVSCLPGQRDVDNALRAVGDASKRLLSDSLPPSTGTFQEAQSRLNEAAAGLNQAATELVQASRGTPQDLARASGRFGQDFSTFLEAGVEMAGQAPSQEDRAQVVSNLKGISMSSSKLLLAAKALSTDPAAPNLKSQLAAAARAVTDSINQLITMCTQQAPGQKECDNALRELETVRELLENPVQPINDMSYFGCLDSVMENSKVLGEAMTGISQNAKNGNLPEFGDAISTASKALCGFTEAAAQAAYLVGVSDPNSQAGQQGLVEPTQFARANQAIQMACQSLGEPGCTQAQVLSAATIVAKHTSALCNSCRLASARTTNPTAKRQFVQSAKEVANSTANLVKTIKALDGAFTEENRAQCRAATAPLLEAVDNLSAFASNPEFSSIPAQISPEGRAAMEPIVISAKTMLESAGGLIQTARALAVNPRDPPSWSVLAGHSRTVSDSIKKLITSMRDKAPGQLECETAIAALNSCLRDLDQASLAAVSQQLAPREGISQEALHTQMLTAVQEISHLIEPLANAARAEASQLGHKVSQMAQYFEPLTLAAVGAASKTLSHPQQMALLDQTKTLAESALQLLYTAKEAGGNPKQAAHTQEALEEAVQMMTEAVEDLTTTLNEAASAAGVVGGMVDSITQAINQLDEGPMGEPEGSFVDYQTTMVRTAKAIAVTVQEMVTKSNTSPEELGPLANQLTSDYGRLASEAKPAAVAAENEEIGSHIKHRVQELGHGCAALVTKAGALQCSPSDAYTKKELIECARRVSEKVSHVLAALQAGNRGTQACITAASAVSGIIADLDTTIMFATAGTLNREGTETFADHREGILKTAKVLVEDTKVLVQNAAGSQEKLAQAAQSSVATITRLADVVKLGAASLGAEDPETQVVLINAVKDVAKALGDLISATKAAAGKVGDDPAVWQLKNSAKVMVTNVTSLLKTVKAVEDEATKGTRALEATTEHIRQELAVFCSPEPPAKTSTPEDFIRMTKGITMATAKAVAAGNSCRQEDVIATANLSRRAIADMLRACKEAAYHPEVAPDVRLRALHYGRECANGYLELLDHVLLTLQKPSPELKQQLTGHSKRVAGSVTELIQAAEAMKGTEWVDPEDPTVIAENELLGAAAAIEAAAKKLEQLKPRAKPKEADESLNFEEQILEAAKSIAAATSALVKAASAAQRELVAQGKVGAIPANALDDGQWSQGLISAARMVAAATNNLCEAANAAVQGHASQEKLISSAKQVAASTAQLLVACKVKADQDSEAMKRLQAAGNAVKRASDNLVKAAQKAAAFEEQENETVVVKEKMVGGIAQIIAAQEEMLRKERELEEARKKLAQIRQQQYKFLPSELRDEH

-TΔS (talin H1-H4 [1]): 7.2 kcal/mol | Kd (talin H1-H4 [1]): 60 nM | ΔH (talin H1-H4 [1]): -17 kcal/mol | N (talin H1-H4 [2]): 0.92 | ΔG (talin H1-H4 [2]): -9.97 kcal/mol
Substance: talin H46 (talin VBS3) α-helix (peptide)

Substance: IpaA full length (from UniProt P18010 1-633)
percentage of foci forming talin coat structures (talin in HeLa cells): 52%

Substance: IpaA VBS3/TBS peptide
-TΔS (talin H1-H4 [3]): -2.83 kcal/mol | Kd (talin H1-H4 [3]): 175 nM | N (stoichiometry) (talin H1-H4 [3]): 0.893 | ΔG (talin H1-H4 [3]): -9.22 kcal/mol | ΔH (talin H1-H4 [3]): -6.39 kcal/mol | -TΔS (talin H1-H4 [1]): -1.53 kcal/mol | Kd (talin H1-H4 [1]): 150 nM | ΔG (talin H1-H4 [1]): -9.07 kcal/mol

Substance: GFP-A483 (from UniProt P18010 483-633)
adhesion stress σ=F/A at detachment, parallel plates [4]: 6.5 nN/µm^2 | median cell surface [4]: 1850 µm^2 | median time between two divisions (second group of GFP-A483 cells) [4]: 17.1 h | median velocity of migration [4]: 30.7 µm/hour | rate of single-cell traction force generation (dF/dt), parallel plates [4]: 0.4

Substance: IpaA 483-633 (A483) (from UniProt P18010 483-633)
-TΔS (talin H1-H4 [5]): -3.8 kcal/mol | Kd (talin H1-H4 [5]): 24.9 nM | N (stoichiometry) (talin H1-H4 [5]): 1 | ΔG (talin H1-H4 [5]): -10 kcal/mol | ΔH (talin H1-H4 [5]): -6.23 kcal/mol | stoichiometry (molar ratio of the complex (1:1)) (talin H1-H4 [6]): 1

Substance: A483:HVD1 complex (from UniProt P18010 483-633; P18206 1-258)
-TΔS (talin H1-H4 [7]): -1.37 kcal/mol | N (stoichiometry) (talin H1-H4 [7]): 0.459 | ΔG (talin H1-H4 [7]): -7.68 kcal/mol | ΔH (talin H1-H4 [7]): -9.05 kcal/mol | -TΔS (talin H1-H4 [1]): 1.37 kcal/mol | stoichiometry (talin H1-H4 [8]): 1

Substance: IpaA 524-633 (A524) (from UniProt P18010 524-633)
-TΔS (talin H1-H4 [9]): -3.47 kcal/mol | Kd (talin H1-H4 [9]): 2030 nM | N (stoichiometry) (talin H1-H4 [9]): 1.5 | ΔG (talin H1-H4 [9]): -7.45 kcal/mol | ΔH (talin H1-H4 [9]): -3.98 kcal/mol | stoichiometry (molar ratio of the complex (1:1)) (talin H1-H4 [6]): 1

Substance: IpaA VBS1 peptide
-TΔS (talin H1-H4 [10]): -2.47 kcal/mol | Kd (talin H1-H4 [10]): 15200 nM | N (stoichiometry) (talin H1-H4 [10]): 1.22 | ΔG (talin H1-H4 [10]): -6.58 kcal/mol | ΔH (talin H1-H4 [10]): -4.1 kcal/mol

Reference: US20180264072A1
